Assay results from patent publication US20240116985A1 (published 2024).
Starred links: 1 amine or outer side, 2 acyl side, 3 side chain; linkers in the order of their positions; H or OH if unused. Positions of bridges follow the written chain, without caps; N, C: chain ends. Non-standard residues stand in square brackets, D forms with d. Primed or numbered codes have the meaning given here. *: point of attachment. (Pfbn)GAbu = (S)-2-amino-4-((carboxymethyl)((perfluorophenyl)methyl)amino)butanoic acid, O=C([C@H](CCN(CC(=O)[*:3])Cc1c(F)c(F)c(F)c(F)c1F)N[*:1])[*:2]; PyrS2″ = (S)-3-amino-1-((pent-4-en-1-yloxy)carbonyl)pyrrolidine-3-carboxylic acid (stapling residue), C=CCCCOC(=O)N1CC[C@@](N[*:1])(C(=O)[*:2])C1; (Tfb)GAbu = (S)-2-amino-4-((carboxymethyl)(4,4,4-trifluorobutyl)amino)butanoic acid, O=C([C@H](CCN(CCCC(F)(F)F)CC(=O)[*:3])N[*:1])[*:2]; (Tfp)GAbu = (S)-2-amino-4-((carboxymethyl)(3,3,3-trifluoropropyl)amino)butanoic acid, O=C([C@H](CCN(CCC(F)(F)F)CC(=O)[*:3])N[*:1])[*:2]; B5(4) = 2,2-bis(4-pentenyl)glycine = 2-amino-2-(pent-4-en-1-yl)hept-6-enoic acid (stitching residue), C=CCCCC(CCCC=C)(N[*:1])C(=O)[*:2]; B5(21) = 2-amino-2-(pent-4-en-1-yl)hept-6-enoic acid, bis(4-pentenyl)glycine (stitching residue), C=CCCCC(CCCC=C)(N[*:1])C(=O)[*:2]; 2Nal = N[C@@H](Cc1ccc2ccccc2c1)C(=O)O; Bta = N[C@@H](Cc1csc2ccccc12)C(=O)O; Lys(iPr) = CC(C)NCCCC[C@H](N)C(=O)O; αAllylPro = C=CC[C@@]1(C(=O)O)CCCN1; tBuAla = CC(C)(C)C[C@H](N)C(=O)O; 3Thi = N[C@@H](Cc1ccsc1)C(=O)O; iPr = CC(C)*

B1: I-1837 (peptide)
peptide: Ac-[αAllylPro]D[tBuAla][B5(4)]D[(Tfb)GAbu]AAFL[PyrS2″][3Thi][Bta]Q-NH2
modifications: staple 1-4, 4-11
B2: I-1838 (peptide)
peptide: Ac-[αAllylPro]D[tBuAla][B5(4)]D[(Pfbn)GAbu]AAFL[PyrS2″][3Thi][Bta]Q-NH2
modifications: staple 1-4, 4-11
B3: I-1839 (peptide)
peptide: Ac-[αAllylPro]D[tBuAla][B5(4)]D[(Tfp)GAbu]AAFL[PyrS2″][3Thi][Bta]Q-NH2
modifications: staple 1-4, 4-11
B4: I-1376 (peptide)
peptide: Ac-[αAllylPro]DA[B5(4)]NT[Lys(iPr)]AFL[PyrS2″]F[Bta]Q-NH2
modifications: staple 1-4, 4-11
notes: also called Ac-PL3-Asp-Ala-B5-Asn-Thr-iPrLys-Ala-Phe-Leu-PyrS2-Phe-BztA-Gln-NH2
B5: I-1377 (peptide)
peptide: Ac-[αAllylPro]DA[B5(4)]NT[Lys(iPr)]AFL[PyrS2″]F[Bta]K-NH2
modifications: staple 1-4, 4-11
notes: also called Ac-PL3-Asp-Ala-B5-Asn-Thr-iPrLys-Ala-Phe-Leu-PyrS2-Phe-BztA-Lys-NH2
B6: I-1378 (peptide)
peptide: Ac-[αAllylPro]DA[B5(4)]NT[Lys(iPr)]AFL[PyrS2″]F[Bta]T-NH2
modifications: staple 1-4, 4-11
notes: also called Ac-PL3-Asp-Ala-B5-Asn-Thr-iPrLys-Ala-Phe-Leu-PyrS2-Phe-BztA-Thr-NH2
B7: I-1379 (peptide)
peptide: Ac-[αAllylPro]DA[B5(4)]NQ[Lys(iPr)]AFL[PyrS2″]F[Bta]Q-NH2
modifications: staple 1-4, 4-11
notes: also called Ac-PL3-Asp-Ala-B5-Asn-Gln-iPrLys-Ala-Phe-Leu-PyrS2-Phe-BztA-Gln-NH2
B8: I-1380 (peptide)
peptide: Ac-[αAllylPro]DA[B5(4)]NK[Lys(iPr)]AFL[PyrS2″]F[Bta]Q-NH2
modifications: staple 1-4, 4-11
notes: also called Ac-PL3-Asp-Ala-B5-Asn-Lys-iPrLys-Ala-Phe-Leu-PyrS2-Phe-BztA-Gln-NH2
B9: I-1381 (peptide)
peptide: Ac-[αAllylPro]DA[B5(4)]NT[Lys(iPr)]AFL[PyrS2″]F[2Nal]Q-NH2
modifications: staple 1-4, 4-11
notes: also called Ac-PL3-Asp-Ala-B5-Asn-Thr-iPrLys-Ala-Phe-Leu-PyrS2-Phe-2NapA-Gln-NH2
B10: I-1382 (peptide)
peptide: Ac-[αAllylPro]NA[B5(4)]DT[Lys(iPr)]AFL[PyrS2″]F[Bta]Q-NH2
modifications: staple 1-4, 4-11
notes: also called Ac-PL3-Asn-Ala-B5-Asp-Thr-iPrLys-Ala-Phe-Leu-PyrS2-Phe-BztA-Gln-NH2
B11: I-1383 (peptide)
peptide: Ac-[αAllylPro]NA[B5(4)]DT[Lys(iPr)]AFL[PyrS2″]F[Bta]K-NH2
modifications: staple 1-4, 4-11
notes: also called Ac-PL3-Asn-Ala-B5-Asp-Thr-iPrLys-Ala-Phe-Leu-PyrS2-Phe-BztA-Lys-NH2
B12: I-1384 (peptide)
peptide: Ac-[αAllylPro]NA[B5(4)]DT[Lys(iPr)]AFL[PyrS2″]F[Bta]T-NH2
modifications: staple 1-4, 4-11
notes: also called Ac-PL3-Asn-Ala-B5-Asp-Thr-iPrLys-Ala-Phe-Leu-PyrS2-Phe-BztA-Thr-NH2
B13: I-1385 (peptide)
peptide: Ac-[αAllylPro]NA[B5(21)]DQK(iPr)AFL[PyrS2″]F[Bta]Q-NH2
modifications: staple 1-4, 4-11
notes: also called Ac-PL3-Asn-Ala-B5-Asp-Gln-iPrLys-Ala-Phe-Leu-PyrS2-Phe-BztA-Gln-NH2
B14: I-1386 (peptide)
peptide: Ac-[αAllylPro]NA[B5(21)]DKK(iPr)AFL[PyrS2″]F[Bta]Q-NH2
modifications: staple 1-4, 4-11
notes: also called Ac-PL3-Asn-Ala-B5-Asp-Lys-iPrLys-Ala-Phe-Leu-PyrS2-Phe-BztA-Gln-NH2
B15: I-1387 (peptide)
peptide: Ac-[αAllylPro]NA[B5(21)]DTK(iPr)AFL[PyrS2″]F[2Nal]Q-NH2
modifications: staple 1-4, 4-11
notes: also called Ac-PL3-Asn-Ala-B5-Asp-Thr-iPrLys-Ala-Phe-Leu-PyrS2-Phe-2NapA-Gln-NH2

The binders below were run against T1, B-cat-Halo (beta-catenin HaloTag construct expressed in HEK293 cells) (UniProt P35222 1-781) (assay: cell-based or functional assay).
T1 sequence (looked up): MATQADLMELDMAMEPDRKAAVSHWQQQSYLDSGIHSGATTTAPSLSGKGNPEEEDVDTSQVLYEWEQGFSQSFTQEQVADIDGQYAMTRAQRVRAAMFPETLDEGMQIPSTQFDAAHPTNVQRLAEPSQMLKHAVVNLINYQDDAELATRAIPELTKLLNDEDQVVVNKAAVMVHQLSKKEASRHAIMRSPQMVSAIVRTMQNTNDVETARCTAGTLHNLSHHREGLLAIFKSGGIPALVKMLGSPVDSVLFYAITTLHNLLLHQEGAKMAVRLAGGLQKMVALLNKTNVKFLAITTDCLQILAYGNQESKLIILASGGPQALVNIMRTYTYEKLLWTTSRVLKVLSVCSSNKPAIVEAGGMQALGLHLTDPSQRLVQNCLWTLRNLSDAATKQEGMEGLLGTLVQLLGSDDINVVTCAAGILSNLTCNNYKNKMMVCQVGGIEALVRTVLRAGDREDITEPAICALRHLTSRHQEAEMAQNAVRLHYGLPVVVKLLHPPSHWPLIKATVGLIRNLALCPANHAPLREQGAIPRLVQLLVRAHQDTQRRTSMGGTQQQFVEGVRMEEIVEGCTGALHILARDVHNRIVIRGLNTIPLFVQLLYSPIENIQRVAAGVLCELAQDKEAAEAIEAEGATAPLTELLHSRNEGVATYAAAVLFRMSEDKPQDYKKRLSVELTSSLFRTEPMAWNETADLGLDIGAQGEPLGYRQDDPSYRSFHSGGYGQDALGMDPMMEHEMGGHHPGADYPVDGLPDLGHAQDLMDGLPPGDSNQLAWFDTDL

Point of comparison: B1, “NanoBRET Abs IC50” value 18.5 µM. Against it:
- B2 — 2.3-fold lower, 7.9 µM
- B3 — within 1.5-fold, 14.6 µM

Each binder was assayed against T2, full-length beta-Catenin (Uniprot ID P35222) (Homo sapiens (Human), UniProt P35222 2-781) (assay: fluorescence polarization competition; full-length beta-catenin + 5FAM-TCF4 10-53 probe, peptide titrated).
T2 construct: full-length beta-Catenin (Uniprot ID P35222); also called bCat; B-Catenin
T2 sequence: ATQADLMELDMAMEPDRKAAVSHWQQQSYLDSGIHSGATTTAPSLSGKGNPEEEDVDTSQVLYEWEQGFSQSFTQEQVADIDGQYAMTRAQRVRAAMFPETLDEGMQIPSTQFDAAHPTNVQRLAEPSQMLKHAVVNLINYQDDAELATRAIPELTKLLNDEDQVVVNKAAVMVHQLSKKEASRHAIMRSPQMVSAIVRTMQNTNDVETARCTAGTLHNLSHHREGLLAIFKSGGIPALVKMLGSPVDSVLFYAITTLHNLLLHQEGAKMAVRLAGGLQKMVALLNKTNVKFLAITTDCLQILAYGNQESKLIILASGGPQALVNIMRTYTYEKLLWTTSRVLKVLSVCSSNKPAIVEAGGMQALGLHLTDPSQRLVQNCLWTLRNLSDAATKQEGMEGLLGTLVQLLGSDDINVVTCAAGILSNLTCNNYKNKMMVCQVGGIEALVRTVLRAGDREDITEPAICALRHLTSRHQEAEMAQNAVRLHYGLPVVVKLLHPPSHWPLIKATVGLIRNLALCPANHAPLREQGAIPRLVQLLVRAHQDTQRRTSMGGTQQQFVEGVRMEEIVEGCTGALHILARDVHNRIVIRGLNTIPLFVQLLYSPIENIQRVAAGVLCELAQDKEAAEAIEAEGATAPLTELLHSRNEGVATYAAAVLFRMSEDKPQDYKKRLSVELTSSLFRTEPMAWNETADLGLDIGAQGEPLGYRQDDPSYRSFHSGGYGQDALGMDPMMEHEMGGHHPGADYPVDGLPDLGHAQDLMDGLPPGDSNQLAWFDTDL
Protocol: The plate was incubated protected from light for 60 minutes at 20° C. prior to read. Reads were performed on a CLARIOstar plate reader (BMG Labtech) in duplicate, and data were fitted to a 1:1 binding model with hill slope using an in-house script. All provided concentrations are final concentrations.

Point of comparison: B11, IC50 1.66 µM. Against it:
- B4 — 2.5-fold higher, 4.21 µM
- B5 — 1.7-fold lower, 1 µM
- B6 — 3.7-fold higher, 6.17 µM
- B7 — within 1.5-fold, 1.44 µM
- B8 — 6-fold higher, 10 µM
- B9 — 6-fold higher, 10 µM
- B10 — 1.7-fold higher, 2.85 µM
- B12 — 6-fold higher, 10 µM
- B13 — 1.5-fold lower, 1.08 µM
- B14 — within 1.5-fold, 2.25 µM
- B15 — 4.2-fold higher, 6.94 µM
